Data as given in patent US20240254229A1 (Molecular Partners, published 2024).

Columns and labels:
[1] = target: T1, biotinylated extracellular domain of human CD33 (SEQ ID NO: 87), Fc and Avi tagged (human, UniProt P20138 18-259, biotinylated with BirA-GST (Avi tag)); assay: SPR (ProteOn XPR36), target on GLC chip, DARPin as analyte
T1 construct: also called hCD33; human target hCD33

[2] = target: T2, biotinylated extracellular domain of human CD123 (SEQ ID NO: 88), Fc and Avi tagged (human, UniProt P26951 19-303, biotinylated with BirA-GST (Avi tag)); assay: as above
T2 construct: also called hCD123
T2 sequence: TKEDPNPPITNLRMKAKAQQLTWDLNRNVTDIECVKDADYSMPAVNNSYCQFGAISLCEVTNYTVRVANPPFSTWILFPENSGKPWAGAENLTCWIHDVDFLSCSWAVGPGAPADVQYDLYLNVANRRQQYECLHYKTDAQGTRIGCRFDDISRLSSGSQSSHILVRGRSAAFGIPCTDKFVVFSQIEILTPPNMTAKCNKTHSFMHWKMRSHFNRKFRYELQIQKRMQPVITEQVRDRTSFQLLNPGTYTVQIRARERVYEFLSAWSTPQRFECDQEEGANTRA

[3] = target: T3, hCD33 and hCD123 immobilized simultaneously on one switchSENSE chip (ratio 2:1, CD33:CD123) (human, UniProt P20138 18-259; P26951 19-305, limits assumed); assay: switchSENSE, hCD33 and hCD123 co-immobilised 2:1; panel headed CD33, column KD2 (avidity, simultaneous binding of CD33 and CD123 per paragraph 696)
T3 construct: Not a complex: two separate ligands on one surface; used for avidity values and for off-rates; also called both ligands; both targets attached to the surface of the chip
T3 sequence (P20138 18-259 limits assumed, one chain of several): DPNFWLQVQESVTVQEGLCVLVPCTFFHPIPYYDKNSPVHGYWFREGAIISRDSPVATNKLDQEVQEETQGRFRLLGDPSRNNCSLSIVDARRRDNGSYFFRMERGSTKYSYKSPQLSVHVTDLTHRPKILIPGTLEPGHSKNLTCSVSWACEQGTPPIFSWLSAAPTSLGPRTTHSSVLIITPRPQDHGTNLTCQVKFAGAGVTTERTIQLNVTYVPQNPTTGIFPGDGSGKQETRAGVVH
Procedure: The designed ankyrin repeat proteins: DARPin® protein #20, DARPin® protein #21, DARPin® protein #22, DARPin® protein #27, DARPin® protein #40 and DARPin® protein #41 were tested in a concentration of 0.16 and 64 nM (in a buffer PE140 containing 10 mM Na2HPO4/NaH2PO4, 140 mM NaCl, 0.05% Tween20, 50 μM EDTA, 50 μM EGTA) for binding against two ligands hCD33 and hCD123, which both were immobilized simultaneously to DNA nanolevers, on the surface, at a pre-defined ratio (2:1, CD33:CD123) and 10% density (100:50) on an ADP-48-1-0 chip, where 100% density 1000 receptors/μm2 (preincubated R1-B48-CD123 and G1-A48-CD33 (100 nM) diluted in cNL-48 (dark)). Briefly the following steps were performed: [0724] Conjugation. Amine coupling of the two ligands (CD33 and CD123) to the DNA nanolever (A48, B48, respectively) and purification of the conjugates using the proFIRE® solution (Dynamic Biosensors GmbH) at 25° C. [0725] Evaluation of all the combined affinity and avidity of all different proteins to both ligands attached on the surface of an ADP chip using a DRX+ instrument (dynamic BIOSENSORS). [0726] Statistical analysis (repeatability from 2 to 5 times) including regeneration of the chip surface every concentration analyzed and long dissociation times and data were fitted using a bi-exponential global fit.

T1 sequence (P20138 18-259 R69G): as the sequence (P20138 18-259 limits assumed, one chain of several) above, with R52G counted along it

B1: DARPin® protein #27 (designed binder)
chain: DLGKKLLEAALEGQLDEVRELLKAGADVNAKDQEGYTPLHLAAALGHLEIVEVLLKAGADVNAKDSIGRTPLHLAAYKGHLEIVEVLLKAGADVNAQDLLGETPADLAAEQGHQDIAEVLQKAAGSPTPTPTTPTPTPTTPTPTPTGSDLGVKLLLAASRGQLDEVRILLKAGADVNAKDIDEGYTPLHIAAYYGHLEIVEVLLKAGADVNAKDRYGKTPLHLAAISGHLEIVEVLLKAGADVNAQDDKGDTPADLAADYGHQDIAEVLQKAAGSPTPTPTTPTPTPTTPTPTPTGSDLGQKLLEAAWAGQDDEVRELLKAGADVNAKNSRGWTPLHTAAQTGHLEIFEVLLKAGADVNAKDDKGVTPLHLAAALGHLEIVEVLLKAGADVNAQDSWGTTPADLAAKYGHEDIAEVLQKAA
notes: CD123-CD33-CD3; also called αCD123-aCD33-αCD3_1; not shown: N-terminal His-tag
B1 gave a Kd [1] of 5.7 nM, a Kd [2] of 19 nM and a Kd [3] of 0.17 nM.
